Test results: patent US10792329B2, “S100 based treatment of cardiac power failure” (Ruprecht-Karls-Universitat Heidelberg, priority 2013, dated 2020)

What was measured:
Assay type in all cases: in vivo
[1] = test system: C57B/6 mice with impaired cardiac function due to experimental myocardial infarction; test: β-adrenergically triggered ventricular tachyarrhythmias in failing mouse hearts
Procedure: (§1) The therapeutic window of viral-based re-expression and augmentation of myocardial S100A1 protein concentrations in mice with impaired cardiac function was then analysed. The results for S100A1 dose-dependency in normal mice provides the basis for determining the therapeutic window of S100A1 re-expression in C57B/6 mice with impaired cardiac function due to experimental myocardial infarction through temporary occlusion of the left anterior coronary artery as technically described in detail in Brinks et al. Circ Res (2010) 107; 1140-1149. Techniques for intravenous application of AAV9 for gradual increases in global myocardial transgene expression are described in detail in Voelkers et al. Circ Res (2011) 108; 27-39; in Most et al. JCI (2004) 114; 1550-1563 echocardiography for cardiac function analysis. […] Total S100A1 protein amount in murine myocardium was assessed by ELISA as described in detail in Example 4. S100A1 concentrations were measured by Western Blot as described by Most et al. JCI (2004) 114; 1550-1563 using a custom-made rabbit anti-S100A1 polyclonal IgG antibody (SA 5632). […] Conversion between n-fold relative changes assessed by WB and total myocardial S100A1 protein measured by ELISA is given by the second x-axis. […]

[2] = test system: C57B/6 mice with impaired cardiac function due to experimental myocardial infarction; test: Cardiac function (LV EF %, LV+dp/dt max) in failing mouse hearts
Procedure: The therapeutic window of viral-based re-expression and augmentation of myocardial S100A1 protein concentrations in mice with impaired cardiac function was then analysed. The results for S100A1 dose-dependency in normal mice provides the basis for determining the therapeutic window of S100A1 re-expression in C57B/6 mice with impaired cardiac function due to experimental myocardial infarction through temporary occlusion of the left anterior coronary artery as technically described in detail in Brinks et al. Circ Res (2010) 107; 1140-1149. Techniques for intravenous application of AAV9 for gradual increases in global myocardial transgene expression are described in detail in Voelkers et al. Circ Res (2011) 108; 27-39; in Most et al. JCI (2004) 114; 1550-1563 echocardiography for cardiac function analysis. AAV9-S100A1 and corresponding control vector generation and use the cardiac specific promoter element to drive expression of both transgenes is described in detail in Pleger et al. Science Translational Medicine (2011) 3, 92ra64. The S100A1 re-/overexpression 0.7, 2, 4, 8, 20 and 50 fold corresponds to intravenous AAV9-S100A1 dosages (total virus particles; tvp) 2×10^10 ′, 5×10^10, 1×10^11, 2×10^11, 5×10^11, 1×10^12 respectively. Total S100A1 protein amount in murine myocardium was assessed by ELISA as described in detail in Example 4. S100A1 concentrations were measured by Western Blot as described by Most et al. JCI (2004) 114; 1550-1563 using a custom-made rabbit anti-S100A1 polyclonal IgG antibody (SA 5632). Total S100A1 protein amounts below 0.83 μg S100A1 protein/g wet weight myocardium characterizes failing left ventricular myocardium with impaired contractile function. Conversion between n-fold relative changes assessed by WB and total myocardial S100A1 protein measured by ELISA is given by the second x-axis.
Therapeutic actions peak around 4-fold S100A1 overexpression relating to a total S100A1 protein amount of 3.32 μg S100A1 protein/g wet weight myocardium. The S100A1 therapeutic window of contractile performance enhancement falls into the range between 0.25 and 41.4 μg S100A1 protein/g wet weight myocardium. Values reflect the relative range from re-expression to normal and up to 50 fold relative increase in S100A1 protein levels.

[3] = test system: C57B/6 mice with normal cardiac function; test: Cardiac performance (echocardiography, LV EF %) versus myocardial S100A1 protein level in normal mice
Procedure: The range of myocardial S100A1 protein expression that conveys cardiac performance enhancement in mice with normal cardiac function is determined by the use of AAV9-mediated human S100A1 cDNA myocardial delivery. The cardiac performance with respect to gradually increasing myocardial S100A1 protein levels was assessed in normal 6 months old C57B/6 mice with the aim to determine the efficient dose range of S100A1 protein concentrations in normal myocardium for acute and sustained enhancement of cardiac function in vivo. Techniques used are described in detail in Voelkers et al. Circ Res (2011) 108; 27-39 employing intravenous application of AAV9 for a gradual increase in global myocardial transgene expression; in Most et al. JCI (2004) 114; 1550-1563 for echocardiography for cardiac function analysis. AAV9-S100A1 and corresponding control vector generation and use of the cardiac specific promoter element to drive expression of both transgenes is described in detail in Pleger et al. Science Translational Medicine (2011) 3, 92ra64. The S100A1 overexpression (2, 4, 8, 20 and 50 fold) corresponds to intravenous AAV9-S100A1 dosages (total virus particles; tvp) 5×10^10, 1×10^11, 2×10^11, 5×10^11, 1×10^12 respectively. Total S100A1 protein amount in murine myocardium was assessed by ELISA as described in detail in Example 4. S100A1 concentrations were measured by Western Blot as described by Most et al. JCI (2004) 114; 1550-1563 using a custom-made rabbit anti-S100A1 polyclonal IgG antibody (SA 5632). 0.83 μg S100A1 protein/g wet weight myocardium equals normal S100A1 values in healthy left ventricular myocardium and has been set as 1 for relative comparison. Conversion between n-fold relative changes assessed by WB and total myocardial S100A1 protein measured by ELISA is given by the second x-axis. […] The biologically effective S100A1 dosages fall into the range between 0.83 to 41.5 μg S100A1 protein/g wet weight myocardium and peak actions relate to 3.32 μg S100A1 protein (assessed by ELISA).

[4] = test system: domestic pigs with impaired cardiac function (post-ischemic heart failure); test: β-adrenergically triggered ventricular tachyarrhythmias, large animal model; details: large animal example, FIG. 8
Source text: (§2) This Example details the therapeutic window of viral-based re-expression and augmentation of myocardial S100A1 protein concentrations in domestic pigs with impaired cardiac function. The results for S100A1 dose-dependency in heart failure mice provide the base for determining the therapeutic window of S100A1 re-expression animal models that approximate human weight, size and cardiovascular anatomy and pathophysiology. Post-ischemic heart failure in pigs was induced by experimental myocardial infarction through temporary occlusion of the left circumflex coronary artery by percutaneous balloon occlusion. S100A1 re-expression and overexpression was achieved by retrograde intravenous application of increasing dosages of AAV6-S100A1 with S100A1 expression controlled by a cardiac specific promoter element. Analytical techniques and molecular tools used to this end are described in detail in Pleger et al. Science Translational Medicine (2011) 3, 92ra64. AAV6 was used in addition to AAV9 exploiting its greater myocardial transduction efficacy of AAV6 to achieve increasing myocardial S100A1 protein concentrations. S100A1 re-/overexpression 1.6, 6, 20 and 50 fold corresponds to intravenous AAV9-S100A1 dosages (total virus particles; tvp) of 1.5×10^13 (1.6-fold) and AAV6-S100A1 dosages of 1.5×10^11 (6-fold), 1.5×10^12 (20 fold) and 1.5×10^13 (50-fold), respectively. […]

[5] = test system: domestic pigs with impaired cardiac function (post-ischemic heart failure); test: Cardiac function (LV EF %, LV+dp/dt max) in failing pig hearts
Source text: as §2

[6] = test system: C57B/6 mice with impaired cardiac function due to experimental myocardial infarction; test: CrP/ATP ratio as surrogate for cardiac metabolism in failing mouse hearts
Procedure: as §1

[7] = test system: domestic pigs with impaired cardiac function (post-ischemic heart failure); test: CrP/ATP as surrogate for cardiac metabolism in failing pig myocardium; details: re-expression to normal and up to a 50 fold increase
Source text: as §2

[8] = re-expression to normal and up to a 50 fold increase

B1: S100A1: EF-hand calcium-binding protein of the S100 family; human S100A1 expressed in myocardium from AAV-delivered cDNA (protein, UniProt P23297 1-94, looked up)
Protein S100-A1: MGSELETAMETLINVFHAHSGKEGDKYKLSKKELKELLQTELSGFLDAQKDVDAVDKVMKELDENGDGEVDFQEYVVLVAALTVACNNFFWENS
effect of further increase in cardiac S100A1 protein concentrations ([1]; above the therapeutic window): complete loss of S100A1's therapeutic anti-arrhythmic actions | β-adrenergically triggered ventricular tachyarrhythmias [1, 8]: prevents β-adrenergically triggered ventricular tachyarrhythmias | S100A1 overexpression at which therapeutic actions peak [2]: around 4 fold | total S100A1 protein amount at which therapeutic actions peak [2]: 3.32 μg S100A1 protein/g wet weight myocardium | cardiac function assessed by LV EF % and LV+dp/dt max ([2]; S100A1 re-expression and over-expression): restores and improves cardiac function | effect of further increase in cardiac S100A1 protein concentrations ([2]; above the therapeutic window): complete loss of S100A1's therapeutic performance enhancement | increase of cardiac S100A1 protein concentrations at which left ventricular ejection fraction (LV EF %) peaks ([3]; anesthetized normal mice, compared to normal S100A1 protein levels, assessed by WB): 4-6 fold | effect of further increase in cardiac S100A1 protein concentrations ([3]; normal mice, above the effective range): loss of the S100A1-mediated contractile performance enhancement | S100A1 protein amount of peak actions ([3]; normal mice, assessed by ELISA): 3.32 μg S100A1 protein | effect of further increase in cardiac S100A1 protein concentrations ([4]; above the therapeutic window): complete loss of S100A1's therapeutic actions | β-adrenergically triggered ventricular tachyarrhythmias [4, 8]: prevents β-adrenergically triggered ventricular tachyarrhythmias | effect of further increase in cardiac S100A1 protein concentrations ([5]; above the therapeutic window): complete loss of S100A1's therapeutic actions | cardiac function assessed by LV EF % and LV+dp/dt max [5, 8]: restores and improves cardiac function | effect of further increase in cardiac S100A1 protein concentrations ([6]; above the therapeutic window): complete loss of S100A1's therapeutic anti-arrhythmic actions | CrP/ATP ratio as surrogate for cardiac metabolism restoration [6, 8]: improves the CrP/ATP ratio | CrP/ATP as a surrogate for cardiac metabolism restoration [7]: improves the CrP/ATP
